Broadly, the Kd is the constant that tells how readily two partners part at equilibrium.

Assay [1] deals with T1, circularly permuted human TfR apical domain (human).
T1 construct: TfR residues 326-379 stand N-terminal to 194-296, loop 297-325 deleted; also called huTfR Apical Domain
T1 chain: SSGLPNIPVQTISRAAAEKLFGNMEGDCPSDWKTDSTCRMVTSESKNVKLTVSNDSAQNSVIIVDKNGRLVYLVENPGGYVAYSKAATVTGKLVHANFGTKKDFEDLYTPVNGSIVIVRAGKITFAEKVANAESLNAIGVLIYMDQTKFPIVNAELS
The assay is described as follows: Biacore SPR. Background: In SPR one partner is held on a chip, and binding of the other changes the refractive index at the surface.

The next assay deals with T2, cyno CD98hc (cynomolgus monkey).
T2 construct: also called cynomolgus CD98hc; cyCD98hc
The assay is described as follows: SPR (Biacore). An outline of the steps:
(§1)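 Engineered Fc polypeptides, made as Fc-Fab fusions with anti-BACE1 Fabs, were assessed for Kd toward CD98hc. Measurements were taken by surface plasmon resonance with a Biacore instrument, in a bivalent format or in a monovalent knob/hole format whose CD98hc-binding site sat on the knob chain alone.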

The target of the next assay is T3, human CD98hc (human, UniProt P08195 109-529).
T3 construct: also called huCD98hc; CD98 heavy chain
T3 sequence: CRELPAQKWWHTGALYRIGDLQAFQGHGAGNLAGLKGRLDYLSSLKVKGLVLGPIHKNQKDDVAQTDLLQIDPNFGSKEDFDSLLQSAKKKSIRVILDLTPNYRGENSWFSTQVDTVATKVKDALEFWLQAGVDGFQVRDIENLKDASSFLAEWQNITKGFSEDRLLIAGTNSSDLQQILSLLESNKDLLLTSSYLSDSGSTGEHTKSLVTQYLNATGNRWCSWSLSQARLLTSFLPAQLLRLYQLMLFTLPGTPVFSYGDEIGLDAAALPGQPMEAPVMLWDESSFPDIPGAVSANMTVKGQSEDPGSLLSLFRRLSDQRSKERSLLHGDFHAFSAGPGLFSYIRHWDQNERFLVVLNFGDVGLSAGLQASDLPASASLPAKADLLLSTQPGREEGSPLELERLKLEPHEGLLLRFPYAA
The assay is described as follows: SPR (Biacore). The essentials: as §1

B1: 6.5.11.5.42.2.d1 (Fc fusion)
chain: APELLGGPSVFLFPPKPKDTLMISRTPEVTCVVVDVSHEDPEVKFNWYVDGVEVHNAKTKPREEQYNSTYRVVSVLTVLHQDWLNGKEYKCKVSNKALPAPIEKTISKAKGQPREPQVYTLPPSRDELTKNQVSLTCLVKGFYPSDIAVEWFSNGSKETNYKTTPPVLDSDGSFFLYSKLTVDKSRWQQGNLFACEVMHEALHNHYTYKLLSLSPGK
As to B1, the Kd in assay [1] stood at 3.6 µM.

B2: 6.5.11.5.42.2.d9 (Fc fusion)
chain: APELLGGPSVFLFPPKPKDTLMISRTPEVTCVVVDVSHEDPEVKFNWYVDGVEVHNAKTKPREEQYNSTYRVVSVLTVLHQDWLNGKEYKCKVSNKALPAPIEKTISKAKGQPREPQVYTLPPSRDELTKNQVSLTCLVKGFYPSDIAVEWFSDGAKETNYKTTPPVLDSDGSFFLYSKLTVDKSRWQQGNLFACEVMHEALHNHYTYKLLSLSPGK
For the molecule B2, binding in assay [1] was put at a Kd of 2 µM. This Kd is about 1.8-fold lower than that of the molecule before.

B3: 6.5.11.5.42.2.d8 (Fc fusion)
chain: APELLGGPSVFLFPPKPKDTLMISRTPEVTCVVVDVSHEDPEVKFNWYVDGVEVHNAKTKPREEQYNSTYRVVSVLTVLHQDWLNGKEYKCKVSNKALPAPIEKTISKAKGQPREPQVYTLPPSRDELTKNQVSLTCLVKGFYPSDIAVEWFSDASKETNYKTTPPVLDSDGSFFLYSKLTVDKSRWQQGNLFACEVMHEALHNHYTYKLLSLSPGK
B3: in assay [1], the Kd was 4.4 µM.

B4: 6.5.11.5.42.2.d7 (Fc fusion)
chain: APELLGGPSVFLFPPKPKDTLMISRTPEVTCVVVDVSHEDPEVKFNWYVDGVEVHNAKTKPREEQYNSTYRVVSVLTVLHQDWLNGKEYKCKVSNKALPAPIEKTISKAKGQPREPQVYTLPPSRDELTKNQVSLTCLVKGFYPSDIAVEWFSAGSKETNYKTTPPVLDSDGSFFLYSKLTVDKSRWQQGNLFACEVMHEALHNHYTYKLLSLSPGK
In assay [1], B4 gave a Kd of 29 µM.

B5: 6.5.11.5.42.2.d4 (Fc fusion)
chain: APELLGGPSVFLFPPKPKDTLMISRTPEVTCVVVDVSHEDPEVKFNWYVDGVEVHNAKTKPREEQYNSTYRVVSVLTVLHQDWLNGKEYKCKVSNKALPAPIEKTISKAKGQPREPQVYTLPPSRDELTKNQVSLTCLVKGFYPSDIAVEWFSDGGKETNYKTTPPVLDSDGSFFLYSKLTVDKSRWQQGNLFACEVMHEALHNHYTYKLLSLSPGK
In assay [1], B5 showed a Kd of 8.7 µM.

B6: 6.5.11.5.42.2.d3 (Fc fusion)
chain: APELLGGPSVFLFPPKPKDTLMISRTPEVTCVVVDVSHEDPEVKFNWYVDGVEVHNAKTKPREEQYNSTYRVVSVLTVLHQDWLNGKEYKCKVSNKALPAPIEKTISKAKGQPREPQVYTLPPSRDELTKNQVSLTCLVKGFYPSDIAVEWFSDGSPETNYKTTPPVLDSDGSFFLYSKLTVDKSRWQQGNLFACEVMHEALHNHYTYKLLSLSPGK
In turn, B6 returned an equilibrium dissociation constant (Kd) in assay [1] of 3.5 µM.

B7: 6.5.11.5.42.2.d6 (Fc fusion)
chain: APELLGGPSVFLFPPKPKDTLMISRTPEVTCVVVDVSHEDPEVKFNWYVDGVEVHNAKTKPREEQYNSTYRVVSVLTVLHQDWLNGKEYKCKVSNKALPAPIEKTISKAKGQPREPQVYTLPPSRDELTKNQVSLTCLVKGFYPSDIAVEWFSFGSKETNYKTTPPVLDSDGSFFLYSKLTVDKSRWQQGNLFACEVMHEALHNHYTYKLLSLSPGK
In assay [1], B7 registered a Kd of 24 µM.

B8: 6.5.11.5.42.2.d2 (Fc fusion)
chain: APELLGGPSVFLFPPKPKDTLMISRTPEVTCVVVDVSHEDPEVKFNWYVDGVEVHNAKTKPREEQYNSTYRVVSVLTVLHQDWLNGKEYKCKVSNKALPAPIEKTISKAKGQPREPQVYTLPPSRDELTKNQVSLTCLVKGFYPSDIAVEWFSDGQKETNYKTTPPVLDSDGSFFLYSKLTVDKSRWQQGNLFACEVMHEALHNHYTYKLLSLSPGK
Take B8: the dissociation constant Kd in assay [1] stood at 3.5 µM. Against the preceding molecule, the Kd is about 6.9-fold lower.

B9: LLB2.10.8.12.5.N (Fc fusion)
chain: APELLGGPSVFLFPPKPKDTLMISRTPEVTCVVVDVSHEDPEVKFNWYVDGVEVHNAKTKPREEQYNSTYRVVSVLTVLHQDWLNGKEYKCKVSNKALPAPIEKTISKAKGQPREPQVYTLPPSRDELTKNQVSLTCLVKGFYPSDIAVLWNSHYELENNYKTTPPVLDSDGSFFLYSKLTVDKSRWQQGNIFACNVYHEALHNHYTFKNLALSPGK
notes: Fc part only; changes read against LLB2-10-8
For the molecule B9, the Kd was found to be 4.7 µM with cyno CD98hc and 1.5 µM in the assay with human CD98hc.

B10: LLS2.C.15 (Fc fusion)
chain: APELLGGPSVFLFPPKPKDTLMISRTPEVTCVVVDVSHEDPEVKFNWYVDGVEVHNAKTKPREEQYNSTYRVVSVLTVLHQDWLNGKEYKCKVSNKALPAPIEKTISKAKGQPREPQVYTLPPSRDELTKNQVSLTCLVKGFYPSDIAVKWNSRFQLENNYKTTPPVLDSDGSFFLYSKLTVDKSRWQQGNLFACNVWHEALHNHYTFKNLSLSPGK
notes: Fc part only; also called LLB2.C.15
As for B10, the results for the equilibrium dissociation constant (Kd) in the assay with cyno CD98hc and in the assay with human CD98hc were 2.2 µM and 0.62 µM, respectively.

B11: LLB2.10.8.14.3.N (Fc fusion)
chain: APELLGGPSVFLFPPKPKDTLMISRTPEVTCVVVDVSHEDPEVKFNWYVDGVEVHNAKTKPREEQYNSTYRVVSVLTVLHQDWLNGKEYKCKVSNKALPAPIEKTISKAKGQPREPQVYTLPPSRDELTKNQVSLTCLVKGFYPSDIAVLWNSRFVLENNYKTTPPVLDSDGSFFLYSKLTVDKSRWQQGNIFACNVYHEALHNHRTFKNLRLSPGK
notes: as for B9
With B11, the Kd was found to be 1.9 µM with cyno CD98hc and 0.27 µM with human CD98hc.

B12: LLS2.33.5 (Fc fusion)
chain: APELLGGPSVFLFPPKPKDTLMISRTPEVTCVVVDVSHEDPEVKFNWYVDGVEVHNAKTKPREEQYNSTYRVVSVLTVLHQDWLNGKEYKCKVSNKALPAPIEKTISKAKGQPREPQVYTLPPSRDELTKNQVSLTCLVKGFYPSDIAVQWSSQYELENNYKTTPPVLDSDGSFFLYSKLTVDKSRWQQGNVFACNVWHEALHNHYTFKNLSLSPGK
notes: Fc part only; also called LLB2.33.5
With B12, the Kd in the assay with cyno CD98hc turned out to be 6.9 µM; with human CD98hc, 1.7 µM.

B13: LLS2.43.5 (Fc fusion)
chain: APELLGGPSVFLFPPKPKDTLMISRTPEVTCVVVDVSHEDPEVKFNWYVDGVEVHNAKTKPREEQYNSTYRVVSVLTVLHQDWLNGKEYKCKVSNKALPAPIEKTISKAKGQPREPQVYTLPPSRDELTKNQVSLTCLVKGFYPSDIAVMWNSQYELENNYKTTPPVLDSDGSFFLYSKLTVDKSRWQQGNVFACNVHHEALHNHYTFKNLSLSPGK
notes: Fc part only; also called LLB2.43.5
With B13, the Kd was 5.9 µM in the assay with cyno CD98hc and 1.2 µM with human CD98hc.

B14: LLS2.33.2 (Fc fusion)
chain: APELLGGPSVFLFPPKPKDTLMISRTPEVTCVVVDVSHEDPEVKFNWYVDGVEVHNAKTKPREEQYNSTYRVVSVLTVLHQDWLNGKEYKCKVSNKALPAPIEKTISKAKGQPREPQVYTLPPSRDELTKNQVSLTCLVKGFYPSDIAVAWNSKFELENNYKTTPPVLDSDGSFFLYSKLTVDKSRWQQGNLFACNVWHEALHNHYTFKNLSLSPGK
notes: Fc part only; also called LLB2.33.2
B14: the Kd with cyno CD98hc was found to be 4.5 µM; with human CD98hc it was 2 µM.

B15: LLB2.10.8.14.4.N (Fc fusion)
chain: APELLGGPSVFLFPPKPKDTLMISRTPEVTCVVVDVSHEDPEVKFNWYVDGVEVHNAKTKPREEQYNSTYRVVSVLTVLHQDWLNGKEYKCKVSNKALPAPIEKTISKAKGQPREPQVYTLPPSRDELTKNQVSLTCLVKGFYPSDIAVLWNSRFVLENNYKTTPPVLDSDGSFFLYSKLTVDKSRWQQGNIFACNVYHEALHNHRTFKNLALSPGK
notes: as for B9
For the molecule B15, the dissociation constant Kd in the assay with cyno CD98hc turned out to be 2.36 µM; in the assay with human CD98hc, 0.35 µM.

B16: LLB2.C.3 (Fc fusion)
chain: APELLGGPSVFLFPPKPKDTLMISRTPEVTCVVVDVSHEDPEVKFNWYVDGVEVHNAKTKPREEQYNSTYRVVSVLTVLHQDWLNGKEYKCKVSNKALPAPIEKTISKAKGQPREPQVYTLPPSRDELTKNQVSLTCLVKGFYPSDIAVVWNSQYELENNYKTTPPVLDSDGSFFLYSKLTVDKSRWQQGNVFACNVWHEALHNHYTFKNLSLSPGK
notes: Fc part only
As to B16, the results for the Kd with cyno CD98hc and with human CD98hc were 3.5 µM and 1 µM, respectively.

B17: LLS2.33.8 (Fc fusion)
chain: APELLGGPSVFLFPPKPKDTLMISRTPEVTCVVVDVSHEDPEVKFNWYVDGVEVHNAKTKPREEQYNSTYRVVSVLTVLHQDWLNGKEYKCKVSNKALPAPIEKTISKAKGQPREPQVYTLPPSRDELTKNQVSLTCLVKGFYPSDIAVAWNSKFRLENNYKTTPPVLDSDGSFFLYSKLTVDKSRWQQGNLFACNVWHEALHNHYTFKNLSLSPGK
notes: Fc part only; also called LLB2.33.8
For the molecule B17, the figures for the Kd in the assay with cyno CD98hc and with human CD98hc were 8.2 µM and 2.2 µM, respectively.

B18: LLS2.C.4 (Fc fusion)
chain: APELLGGPSVFLFPPKPKDTLMISRTPEVTCVVVDVSHEDPEVKFNWYVDGVEVHNAKTKPREEQYNSTYRVVSVLTVLHQDWLNGKEYKCKVSNKALPAPIEKTISKAKGQPREPQVYTLPPSRDELTKNQVSLTCLVKGFYPSDIAVAWNSRFELENNYKTTPPVLDSDGSFFLYSKLTVDKSRWQQGNIFACNVWHEALHNHYTFKNLSLSPGK
notes: Fc part only; also called LLB2.C.4
With B18, the values for the Kd with cyno CD98hc and with human CD98hc were 2.7 µM and 0.7 µM, respectively.

For the origin of these results see patent US20250145729A1 (DENALI THERAPEUTICS, published 2025).
